# Reference: the DeepSol protein solubility set
# Assay: soluble on expression in E. coli; label from the status in PepcDB or PDB records
row,Sequence,soluble on expression in E. coli
1,QRKGVLIILDGLGDRPIKELGGKTPLEYANTPTMDYLAKIGILGQQDPIKPGQPAGSDTAHLSIFGYDPYKSYRGRGYFEALGVGLELDEDDLAFRVNFATLENGVITDRRAGRISTEEAHELAKAIQENVDIPVDFIFKGATGHRAVLVLKGMAEGYKVGENDPHEAGKPPHPFTWEDEASKKVAEILEEFVKKAHEVLDKHPINEKRRKEGKPVANYLLIRGAGTYPNIPMKFTEQWKVKAAAVVAVALVKGVAKAIGFDVYTPKGATGEYNTDEMAKARKAVELLKDYDFVFIHFKPTDAAGHDNNPKLKAELIERADRMIKYIVDHVDLEDVVIAITGDHSTPCEVMNHSGDPVPLLIAGGGVRADYTEKFGEREAMRGGLGRIRGHDIVPIMMDLMN,not soluble
2,MDVGKLESFIVEKMAERKVPGISISIIKDGDVVYAKGFGYRNVEARLPSTPETIYGIGSITKSFTALAIMKLVEEGGLSLDDPVEKFVNIKLRPFGEPVTVHHLLTHSSGIPSLGYAEAFIDGMVGGDNWLPVSTPEETIAFARDMEKWAVAKPGERFFYLNTGYVLLGKIIEKVSGVSYEEYIKKKILEPLGMNRSYFFKEEVEKDKDVAMGYILDKEGRLVPQPFPYGITADGGLLSSVLDLAKYLKMYIERDESIVSKEYIEKMETSYIKVPWEIFGGEGYGYGLIIYPNFLGEKLVGHSGSVGMYTGYIGYIPEKKIGVAVLENSSGYPPSYIAMYALALLLGKNPEKELPFIYRERILKKVEGRYMGYKGTIKFEVKVDGDVVYLRALGRAFTYTIPLFPEVLEEDFIKCYTLSNGRKMYAEFYIKDNKVDLIFERYRLIKS,soluble
3,MTVQVFHTLFLTNDCGDHVVLINTREIALPGDEWVKRVYFHHTGYPGGASWTLAWQLHEKDPTMVMKKAVYNSMRGNLQRRHTMQRLHLFADDQVPEEILQNVTNQIRTPRSIPQRLDHIDKETLENFPNIMDYPKDYILRLEHHHHHH,not soluble
4,MAEWCADHLRNCEGWKSAGLELSTTSDENAKWLDACIRQLVSWSDCTSLGGFHTSIEKLVASDPEAIMARTFLVGLSGLGTEAAARNVEFAKKMDQLEIDAEKYGNAREKRHAKAAILWGRGKHHEAAIEWDKLLDDYPTDLIAVKFSHDAHFFNGNQIGKKNAIEKVIHKWNADLPCYSYLHGMYAFGLEECGIYDDAETQADRALQLNRFDCWASHAKAHVLEMNGRHKEGKEFMYKTEDDWRQGWMLASHNYWHTALFHIEYAEYESALGIFDREIANRFNKTNSLLDMVDASSLLWRLELEGVNVGRDRWRKIEHLSKFIDNHSIVFNDVHLGLAIYRQEDLETEKKLRNSLEKYSSLLSEDNAQISKTIGMPLYDGMLDFARCDYDTAAETMYPIRDKVVQIGGSHAQRDLFVQTLIQSCILSKDPKNWALTPELLVERETLKHDSLLGQRLADKFRALHPL,not soluble
5,MKVVIASDHGGMNIRKELVSLLEELNIEYIDLGCECEAGSVDYPDFAFPAAEMVANGEVDRGILVCGTGIGMSIAANKVNGIRCALVHDTFSARATREHNDTNMLAMGERVIGAGLARDIAKIWLTTEFEGGRHENRVGKIKTYEAK,not soluble
6,GDYTTLTFRVSTHIEEAAPTSCPAEHPHTVAQGDYLIVAKSNRMSTGNDELGSILMRAFVNAIGELDRLPSHIILYNTGVLLAVEGTDTAETLAELNKKHGIPIIVCGTCADYYEVKDKLRIGTISNMYRIMQLQVATRHIIYP,not soluble
7,MNAQIKIINTANGYMALCQDTPEDITPAWFSVDFWREKSAVVGSSKGRYTTWFVAFEHSHWVLRHYWRGGMMEKFSKDAYFYTGLENTRAMGELRLLDALYREQFAVPKPIAANIVRDGLFYRADIIIERVDGAEDLVAKLTKGTMTQAQWHALGATIAQFHRRGVYHADLNAKNILWQPQQTDSAQERFYLIDFDRGELKTPNAKWQKANLDRLLRSFNKEQGKQPTLAFTPANWAALLEGYHAVVPKVAAALEHHHHHH,soluble
8,SAESENVSNNISLYSEETVILDVKGKNKTDVIDEMIGILDKSGVLLDKKKFKEEILKREEISSTGFGMGIAIPHAKTDAVKVPRVAVGVSKEGFDFESEDGSLAHIIFMIAATDNGDNLHLKTLSQLSSKLMNEEFLNELLNSKTSREIVSKLNNEEIKSV,not soluble
9,MGSDKIHHHHHHMPSSVCGDPMMCQNCKKSVPNAIFHVYHRRGFHYPAQKCEENFILFLIKGEMLVNSREYAGTMLKAGEFMLQPISSKIEMLAMTDVECIYYQFNQPELFCDIRYNRIMKETDPPLIPSPLPIIPELQHFLESARTYLSEKKICRDLLSLKRKELAFILGYFYSDYDLASLVHPLSKYASSFECFVYQNYKKVKTVEEFAKLGGYSQTTFRRIFDNVFHEPVYEWMLSRRKEEIIYELQNTEATISEICYKFGFESLPHFSNFCKKSFGTSPRSIRLKRSSE,not soluble
10,MDEPVDVELVLAVDVSLSMSADELEIQRHGYAAALTHDNVLQAIADGAHGKIAVTYVEWAGTTWQRVIVPWTVIANRADAERVVAQLSAQPPNSARRTSISGALEFGSDLFAESGYEGTKRVIDISGDGPNNQGAPVNLTRDGVVRQGIVINGLPLMTRGGLSGAYDVNDLDRYYSDCVIGGPGAFMIPVNDWTQFPEAIRRKLVLELAGLEHHHHHH,soluble
11,MSLNNIDNIINFINKTPKSELHLHIEGSLEPELMFKLSKRNKIEIPFKSVEDIKSAYNFSNLDSFLKIYYEGSNVLITEEDFFDLTWEYILRCKKDNIVHTEIFFDPQSHTSRGIKFDIIINGIHKALAKANDEFGITSKIIMCFLRHLDEKLCFDVLKDAIQHKDKIIGVGLDSSEKGNPPKKFKRLFEEAIKEGFLTVAHAGEEGPPEYIWDSLNLLKVKRIDHGVQCLKDDDLVKNLKENNIPLTVCPLSNIKLCVFDKLENHNLKKMLEKGLRVMVNSDDPAYFGGYLNKNLIEISKALNLNLEQVKVLIQNSFKSSFLDKKSKSKWLSKVEGHHHHHH,soluble
12,MLILGHPLIPSARFVFIKNTDAIHSNTNNDIVCFEAHPKNLELAKYCCENSVHFSVIFLSHKIETDTFFLFNAFKPLYCIFKDIKQAILAQQHATNYLLDSKILFFMDLNDTELWEICAKSQIDGVISKDSLLLK,soluble
13,MSQSNTLTVQILDKEYCINCPDDERANLESAARYLDGKMREIRSSGKVIGADRVAVMAALNITHDLLHRKERLDQESSSTRERVRELLDRVDRALANPADAGEA,soluble
14,MGYLVSKHLALSLGSSKRGYILSPIMPPVVIVEDDGPGYPFDIYYSEGKRVLTIVHRANPEREVQDEYLHTLSLWLREMGVGRVILVGGLNMEFMPREEKHGYRWLANRHYKGPKLEAPTMEAGLGVVGPLALLYMYLDYLGVPAAMVLPYSVAERVDYEAAIRGLKVIGGSIIGVEIPTDEIEKMASMQREILETISRMIEGEEEKESGGIYM,not soluble
15,MSLKQGLQLRLSQQLAMTPQLQQAIRLLQLSTLELQQELQQALESNPLLEQIDTHEEIDTRETQDSETLDTADALEQKEMPEELPLDASWDTIYTAGTPSGTSGDYIDDELPVYQGETTQTLQDYLMWQVELTPFSDTDRAIATSIVDAVDETGYLTVPLEDILESIGDEEIDIDEVEAVLKRIQRFDPVGVAAKDLRDCLLIQLSQFDKTTPWLEEARLIISDHLDLLANHDFRTLMRVTRLKEDVLKEAVNLIQSLDPRPGQSIQTGEPEYVIPDVLVRKHNGHWTVELNSDSIPRLQINQHYASMCNNARNDGDSQFIRSNLQDAKWLIKSLESRNDTLLRVSRCIVEQQQAFFEQGEEYMKPMVLADIAQAVEMHESTISRVTTQKYLHSPRGIFELKYFFSSHVNTEGGGEASSTAIRALVKKLIAAENPAKPLSDSKLTSLLSEQGIMVARRTVAKYRESLSIPPSNQRKQLVEGHHHHHH,soluble
16,MSLDIRGIGYLGFESPNIEAWRSYGPEVLGLAIAPSPEDEPDALYLKMDDRRYRLAFQPGPIDKLAYIGWECVNRIAFEKAVKKLQDAGIAVEMGSDDLKARRAVRDVVRFKDPVGYQYELFYGQKGEPDSFVPGRRHGGFNTYGRGFGHVVVMTPEYGPELDDFLINIMGFQWYGSGAGKGKTGFYRAGLNNLTSHDIGYGHAPGRMGIQHIGLLTGDLRDVGETWDIVNKRQIQVQMTLGQHTQDPHFSFYHFSPSGFAVEVIAETHPWPGDPFELNAERLSYWGHQLVGPILGTEGHHHHHH,not soluble
17,MPKLHMFYLGGNAGRSNIEVHDIQFAVCDNYREAVPALKAAWFGDADKIHIDGWQIVEWADGYDIAVSETPKTKMPSEHAPRLYFANVGGYRAGQLAEAHAFGLFAAATPAEAKQKALQTLLTDSYVQQHKDNLKDVDNLLALDRIGNFHIRLTPNPHGKPAEIGFQGYLPI,not soluble
18,MGSDKIHHHHHHLTKKITEFQNDEEMELFVLIKSAEKRVTKAGKDFISMKFQDRSGDIHGNCWDAKEEDFKNFQPGRVVLLRGKRETYKNAPQVKIMAMRLATDEEPNDPTAYTEKGPVSAEKLREEFTQLMFEINNPDWNRVVRYLLKKYDREFFSFPAAKTNHHAFEGGLAFHTLSIVNLAKSVAAQYEQVDQSLLIAGAILHDLGKTIELSGPIATQYTVEGNLLGHIVIVDEEIVEAAKDLKIDPSSESMVVLRHMIVAHHGLKEYGSPVEPHMLEAVILHALDELDAEIQMVSGALKNTQPGAFSERIFGMDGRNFYKPESK,not soluble
19,MEDFKSGDLILGYYKVLEKLGEGNFGKVYKVEALKGRYKGKVFALKVASNPYSVHYLWKEAQTLILFHHQNIVSLQSYLYKKDKKELYLIYEYMDFGTLKDYVEKKGKLSPEEALKVLRHVVNALEYLHSRGYIHSDLKPENVFGKRVLGGVLWKLGDFSLVRIRGDVSIIDVKGTIGFIAPEIFRGEIHRSSDIYSLGCLTLYMLTGKVPFEGKDFKERKEKNKRGEVEIPEEIPGKLKDLLERMLEVDYKRRFRTARELKEYMVKEGLI,soluble
20,NAKKPTMQLSDSGVDILIGSASYEGGELVLPTSITNQSSQSVIQVEVEVQVFDMSGKQLAKEKVTVWQSIKRMADTYLRPQQAEQGKSIKLAVPQSQQYQFSAKVLEVKTR,not soluble
21,MRLAFFGDVHGNFEALKAVLEDMENKGVDEVFCLGDLVGYGPDPEAVVQTIMEKNIKTIMGNYDDAVGYSKESCGCSYAPGRETEVGDISLKWSIENTSEKTREFLRNLPKKLSFEVEGVRFLLVHGSPLNELLEYVKPNTPPDRLKKIVESVEENVVVNGHTHLPMVKWVMGKLVLNPGSAGRPKDGDPRASYMIVDVENGTVSFEIVRVRYDVKTTVEKIARNGLPVELATVLALGQTFDMGPGKVTFTLGR,soluble
22,MGGSGVEGLSGKRCWLAVRNASLCQFLETSLQRSGIVVTTYEGQEPTPEDVLITDEVVSKKWQGRAVVTFCRRHIGIPLEKAPGEWVHSVAAPHELPALLARIYLIEMESDDPANALPSTDKAVSDNDDMMILVVDDHPINRRLLADQLGSLGYQCKTANDGVDALNVLSKNHIDIVLSDVNMPNMDGYRLTQRIRQLGLTLPVIGVTANALAEEKQRCLESGMDSCLSKPVTLDVIKQTLTLYAERVRKSRDS,soluble
23,MENVCFQQRLRDLETRVRKWKFLKLGLTEVRLRPRDRRSTSVDQKHKECSSTSSSPQHQRPNNIGYLTSPMERKFTPLSMKPSPSRRDTEKDALEYEFLEGYKKSGTLEIDGEKQVVDPNEIHIISLLGSGSCGVVESATVRSKLMAVKTMYKNDNKENLKRILRDVRIMSMCNSPFIVTSYGYFMFDSSVKICMQIMSACCEKLLRRIYHSKLDFFPEFVAGHIVYSAISALDYLKEKHSIIHRDIKPSNILFDDSGNVKLCDFGISGFMTDSMAHSKSAGCPPYMAPERLTIETNSKYDVRSDVWSLGITVYQLVTGLYPFPLNDMEFTTLTIIANLNLPSPSLREETKRSFSPLFIEFLDLCLRKDVRERPEYRQLMKHDFYLDYDPASGSAYKFKAINGKCNQVADWFVDVIRLSKTEDELKSIPNTPCVN,not soluble
